Patent US20070178531A1 (BIOCHECK, published 2007)
Numbering of substitutions follows the chain as printed.

Tests used:
[1] = biological target: T1, Mouse Id2: Histidine (mouse, UniProt P41136 1-134, limits assumed); assay: ELISA, Ab 0.005 µg/ml
T1 construct: Fusion protein made in E. coli from vector pGW07; also called m-Id2: His; not shown: His tag
T1 sequence (looked up): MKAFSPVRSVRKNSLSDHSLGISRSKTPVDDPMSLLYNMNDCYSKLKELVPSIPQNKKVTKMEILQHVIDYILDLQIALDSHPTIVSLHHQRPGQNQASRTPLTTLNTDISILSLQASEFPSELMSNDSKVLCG

[2] = biological target: T2, Human Id2: Histidine (human, UniProt Q02363 1-134, limits assumed); assay: ELISA, Ab 0.005 µg/ml
T2 construct: Fusion protein made in E. coli from vector pGW07; also called h-Id2: His; not shown: His tag
T2 sequence (looked up): T1 sequence (looked up) with T60S, V131A

[3] = biological target: T3, Human Id1: Histidine (human, UniProt P41134 1-155, limits assumed); assay: ELISA, Ab 0.005 µg/ml
T3 construct: Fusion protein made in E. coli from vector pGW07; also called h-Id1: his; not shown: His tag
T3 sequence (looked up): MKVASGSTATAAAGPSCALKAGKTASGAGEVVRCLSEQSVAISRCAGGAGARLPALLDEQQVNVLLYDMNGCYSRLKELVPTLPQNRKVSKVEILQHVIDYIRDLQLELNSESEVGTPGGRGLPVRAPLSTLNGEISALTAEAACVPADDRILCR

[4] = biological target: T4, Mouse Id3: Histidine (mouse, UniProt P41133 1-119); assay: ELISA, Ab 0.005 µg/ml
T4 construct: Fusion protein made in E. coli from vector pGW07; also called m-Id3: His; Mouse Id3 (coated wells); not shown: His tag
T4 sequence: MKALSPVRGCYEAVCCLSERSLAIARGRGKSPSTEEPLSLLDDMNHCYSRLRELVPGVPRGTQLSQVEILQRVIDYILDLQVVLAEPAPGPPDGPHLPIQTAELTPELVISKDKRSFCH

[5] = biological target: T5, Mouse Id1: Histidine (mouse, UniProt P20067-2 1-148, limits assumed); assay: ELISA, Ab 0.005 µg/ml
T5 construct: Fusion protein made in E. coli from vector pGW07; also called m-Id1-His; not shown: His tag
T5 sequence (looked up): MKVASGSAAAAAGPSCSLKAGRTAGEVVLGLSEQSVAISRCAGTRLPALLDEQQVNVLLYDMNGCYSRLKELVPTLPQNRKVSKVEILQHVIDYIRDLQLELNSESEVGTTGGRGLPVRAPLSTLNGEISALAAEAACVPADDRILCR

[6] = biological target: T6, Human Id3: Histidine (human, UniProt Q02535 1-119 at identity 1.00)); assay: ELISA, Ab 0.005 µg/ml
T6 construct: Fusion protein made in E. coli from vector pGW07; also called h-Id3: His; Human Id3 (coated wells); not shown: His tag
T6 chain: T4 sequence with S31G, S33A, T34A, T105A, K112N

[7] = biological target: T1, Mouse Id2: Histidine; assay: ELISA, Ab 0.050 µg/ml
[8] = biological target: T2, Human Id2: Histidine; assay: ELISA, Ab 0.050 µg/ml
[9] = biological target: T3, Human Id1: Histidine; assay: ELISA, Ab 0.050 µg/ml
[10] = biological target: T5, Mouse Id1: Histidine; assay: ELISA, Ab 0.050 µg/ml
[11] = biological target: T6, Human Id3: Histidine; assay: ELISA, Ab 0.050 µg/ml
[12] = biological target: T1, Mouse Id2: Histidine; assay: ELISA, Ab 0.025 µg/ml
Protocol: (§1) 1. Dispense 100 μL of antibody diluent, diluted rabbit monoclonal human Id3, and mouse/human Id3 hybridoma supernatants into appropriate wells. […] 2. Incubate at room temperature with mechanical shaking at 750 rpm for 90 minutes. [0165] 3. Remove the incubation mixture by flicking plate content into an appropriate waste container followed by rinsing the wells 5 times with distilled water. [0166] 4. Strike the wells sharply onto absorbent paper or paper towels to remove all residual water droplets. [0167] 5. Dispense 100 μL of 1:50,000 Goat Anti-Rabbit IgG-HRP Conjugate Reagent into each well. Gently mix for 5 seconds. [0168] 6. Incubate at room temperature with mechanical shaking at 750 rpm for 90 minutes. [0169] 7. Repeat procedures 3 and 4. [0170] 8. Dispense 100 μL of TMB Reagent into each well. Gently mix for 5 seconds. [0171] 9. Incubate at room temperature with mechanical shaking at 750 rpm for 20 minutes. […] 10. Add 100 μL of Stop Solution (1N HCl) into each well. [0173] 11. Gently mix for 10 seconds to ensure a complete mixing. [0174] 12. Read optical density at A450 nm.
(§2) Cross-reactivity of rabbit monoclonal anti-mouse/human Id3 (clone #6-1) and commercial rabbit polyclonal antibody (Santa Cruz Biotechnology) were determined according to the procedures of Example 9.

[13] = biological target: T2, Human Id2: Histidine; assay: ELISA, Ab 0.025 µg/ml
Protocol: as §1, §2

[14] = biological target: T3, Human Id1: Histidine; assay: ELISA, Ab 0.025 µg/ml
Protocol: as §1, §2

[15] = biological target: T4, Mouse Id3: Histidine; assay: ELISA, Ab 0.025 µg/ml
Protocol: as §1, §2

[16] = biological target: T5, Mouse Id1: Histidine; assay: ELISA, Ab 0.025 µg/ml
Protocol: as §1, §2

[17] = biological target: T6, Human Id3: Histidine; assay: ELISA, Ab 0.025 µg/ml
Protocol: as §1, §2

B1: rabbit monoclonal anti-mouse/human Id3, clone #BCH-4/#6-1 (antibody, V domains shown)
VH: QSVEESGGRLVTPGTPLTLTCTASGFSLSNVYIHWVRQAPGKGLEWIGYISDGDTARYATWAKGRFTISKTSSTTVNLKMTSLTTEDTATYFCARQGFNIWGPGTLVTVSL
VL: AVLTQTPSPVSAAVGGTVSISCQSSQSVWNNNWLSWFQQKPGQPPKLLIYETSKLESGVPSRFKGSGSGTQFTLTISDVQCDDAATYYCLGGYWTTSDNNVFGGGTEVVVK
notes: Rabbit IgG from a rabbit hybridoma; also called m/h Id3 MoAb 6-1
- A450 [1]: 0.073 A450
- A450 [2]: 0.076 A450
- A450 [3]: 0.075 A450
- A450 [4]: 0.295 A450
- A450 [5]: 0.076 A450
- A450 [6]: 0.248 A450
- A450 [7]: 0.093 A450
- A450 [8]: 0.086 A450
- A450 [9]: 0.091 A450
- A450 [10]: 0.093 A450
- A450 [11]: 1.52 A450
- A450 [12]: 0.076 A450
- A450 [13]: 0.088 A450
- A450 [14]: 0.073 A450
- A450 [15]: 1.15 A450
- A450 [16]: 0.072 A450
- A450 [17]: 1.01 A450
